Test results reported in patent US20260258123A1 (MOMENTA PHARMACEUTICALS, published 2026).

Columns and labels:
[1] = target: T1, endogenous human FcRn in cells (human, UniProt P55899 24-365); test: cell-based or functional assay
[2] = target: T2, recombinant human FcRn (rhFcRn) (human, UniProt P55899 24-297; P16213 21-119); test: SPR method of Example 2; differs from the 19.4 pM of Table 3
[3] = target: T1, endogenous human FcRn in cells; test: flow cytometry on fixed and permeabilised THP-1 cells (endogenous human FcRn), pH 7.4
[4] = target: T2, recombinant human FcRn (rhFcRn); test: SPR (ProteOn XPR 36), mAb captured on anti-human Fc, rhFcRn as analyte, pH 7.4, 298K
[5] = target: T1, endogenous human FcRn in cells; test: FcRn occupancy in HVTs: unlabeled N027 for 1 hour at 37 C, free FcRn stained with VivoTag645-N027, flow cytometry
[6] = target: T1, endogenous human FcRn in cells; test: FcRn occupancy in HAECs: unlabeled N027 for 1 hour at 37 C, free FcRn stained with VivoTag645-N027, flow cytometry
[7] = target: T1, endogenous human FcRn in cells; test: FcRn occupancy in HUVECs: unlabeled N027 for 1 hour at 37 C, free FcRn stained with VivoTag645-N027, flow cytometry
[8] = target: T3, cynomolgus monkey FcRn extracellular domain, GPI-linked, on the surface of HEK 293 cells (cynomolgus monkey, UniProt Q8SPV9 24-297; Q8SPW0 21-119, C-terminal engineered GPI linkage); test: competition flow cytometry on HEK 293 cells with cell-surface GPI-linked cynomolgus monkey FcRn at pH 6.0; inhibition of the binding of 66 nM fluorescent probe-labeled non-specific IgG; readout cell bound IgG (MFI)
T3 construct: extracellular domain; b2m is not mentioned for these cells

Binder	intracellular IgG accumulation (VivoTag645-IgG, flow cytometry), ~IC50, HAECs [1] [µg/mL]	intracellular IgG accumulation (VivoTag645-IgG, flow cytometry), ~IC50, HUVECs [1] [µg/mL]	intracellular IgG accumulation (VivoTag645-IgG, flow cytometry), ~IC50, HVTs [1] [µg/mL]	Kd [2] [nM]	EC50 [3] [nM]	Kd [4] [nM]	koff [4] [s⁻¹]	kon [4] [M⁻¹ s⁻¹]	IC50 [5] [µg/mL]	IC50 [6] [µg/mL]	IC50 [7] [µg/mL]	EC50 [8] [nM]
N027 (antibody, human IgG1, lambda, N297A, IgG1, lambda light chain; Fluorophore-labelled forms served as detection reagent in the occupancy assays; also called anti-FcRn antibody N027; VivoTag645-labeled N027) heavy: not shown light: QSALTQPASVSGSPGQSITISCTGTGSDVGSYNLVSWYQQHPGKAPKLMIYGDSERPSGVSNRFSGSKSGNTASLTISGLQAEDEADYYCSSYAGSGIYVFGTGTKVTVLGQPKAAPSVTLFPPSSEELQANKATLVCLISDFYPGAVTVAWKADSSPVKAGVETTTPSKQSNNKYAASSYLSLTPEQWKSHKSYSCQVTHEGSTVEKTVAPTECS	~0.12	~0.15	~0.07	0.0193	3	0.0194	2.31e-05	1.19e+06	0.15	0.23	0.15	4.46
N023 (antibody, human IgG1, lambda, N297A, also called anti-FcRn antibody N023) heavy: not shown light: QSALTQPASVSGSPGQSITISCTGTGSDVGSYNLVSWYQQHPGKAPKLMIYGDSERPSGVSNRFSGSKSGNTASLTISGLQAEDEADYYCSSYAGSGIYVFGTGTKVTVLGQPKAAPSVTLFPPSSEELQANKATLVCLISDFYPGAVTVAWKADSSPVKAGVETTTPSKQSNNKYAASSYLSLTPEQWKSHKSYSCQVTHEGSTVEKTVAPTECS	–	–	–	–	–	0.0314	2.91e-05	927000	–	–	–	5.16
N024 (antibody, human IgG1, lambda, N297A, IgG1, lambda light chain; also called anti-FcRn antibody N024) heavy: not shown light: QSALTQPASVSGSPGQSITISCTGTGSDVGSYNLVSWYQQHPGKAPKLMIYGDSERPSGVSNRFSGSKSGNTASLTISGLQAEDEADYYCSSYAGSGIYVFGTGTKVTVLGQPKAAPSVTLFPPSSEELQANKATLVCLISDFYPGAVTVAWKADSSPVKAGVETTTPSKQSNNKYAASSYLSLTPEQWKSHKSYSCQVTHEGSTVEKTVAPTECS	–	–	–	–	–	0.0355	4.03e-05	1.13e+06	–	–	–	3.51
N026 (antibody, human IgG1, lambda, N297A, IgG1, lambda light chain; also called anti-FcRn antibody N026) heavy: not shown light: QSALTQPASVSGSPGQSITISCTGTGSDVGSYNLVSWYQQHPGKAPKLMIYGDSERPSGVSNRFSGSKSGNTASLTISGLQAEDEADYYCSSYAGSGIYVFGTGTKVTVLGQPKAAPSVTLFPPSSEELQANKATLVCLISDFYPGAVTVAWKADSSPVKAGVETTTPSKQSNNKYAASSYLSLTPEQWKSHKSYSCQVTHEGSTVEKTVAPTECS	–	–	–	–	–	0.0365	4.44e-05	1.22e+06	–	–	–	2.68
N022 (antibody, human IgG1, lambda, N297A, also called anti-FcRn antibody N022) heavy: not shown light: QSALTQPASVSGSPGQSITISCTGTGSDVGSYNLVSWYQQHPGKAPKLMIYGDSERPSGVSNRFSGSKSGNTASLTISGLQAEDEADYYCSSYAGSGIYVFGTGTKVTVLGQPKAAPSVTLFPPSSEELQANKATLVCLISDFYPGAVTVAWKADSSPVKAGVETTTPSKQSNNKYAASSYLSLTPEQWKSHKSYSCQVTHEGSTVEKTVAPTECS	–	–	–	–	–	0.031	4.42e-05	1.42e+06	–	–	–	4.8
